Reference: article PMC10030352

Target: human NCC_(cryo1) (human) (UniProt P55017)
Assay: cryo-EM structure

human NCC_(cryo1) (from UniProt P55017 1-1021) (natural protein)
stoichiometry N: 2
